This assay concerns the target T1, USP20 (Ubiquitin Specific Peptidase 20) on the HuProt protein microarray (human, UniProt Q9Y2K6 1-914).
T1 construct: ubiquitin specific peptidase 20, human, spot on the HuProt array of full-length recombinant human proteins; source: bought: HuProt protein microarray (CDI Labs), recombinant
Briefly: peptide or protein array; HuProt human protein microarray (over 20,000 full-length recombinant human proteins); 3 μg biotinylated His-SPAST on the array for 8 h at 4 °C; detected with streptavidin-Alexa-Fluor 635. The following applies: both partners purified.

These results are taken from paper PMC9308218, “FBXL17/spastin axis as a novel therapeutic target of hereditary spastic paraplegia” (Cell & Bioscience, 2022).

T1 sequence (Q9Y2K6 whole entry): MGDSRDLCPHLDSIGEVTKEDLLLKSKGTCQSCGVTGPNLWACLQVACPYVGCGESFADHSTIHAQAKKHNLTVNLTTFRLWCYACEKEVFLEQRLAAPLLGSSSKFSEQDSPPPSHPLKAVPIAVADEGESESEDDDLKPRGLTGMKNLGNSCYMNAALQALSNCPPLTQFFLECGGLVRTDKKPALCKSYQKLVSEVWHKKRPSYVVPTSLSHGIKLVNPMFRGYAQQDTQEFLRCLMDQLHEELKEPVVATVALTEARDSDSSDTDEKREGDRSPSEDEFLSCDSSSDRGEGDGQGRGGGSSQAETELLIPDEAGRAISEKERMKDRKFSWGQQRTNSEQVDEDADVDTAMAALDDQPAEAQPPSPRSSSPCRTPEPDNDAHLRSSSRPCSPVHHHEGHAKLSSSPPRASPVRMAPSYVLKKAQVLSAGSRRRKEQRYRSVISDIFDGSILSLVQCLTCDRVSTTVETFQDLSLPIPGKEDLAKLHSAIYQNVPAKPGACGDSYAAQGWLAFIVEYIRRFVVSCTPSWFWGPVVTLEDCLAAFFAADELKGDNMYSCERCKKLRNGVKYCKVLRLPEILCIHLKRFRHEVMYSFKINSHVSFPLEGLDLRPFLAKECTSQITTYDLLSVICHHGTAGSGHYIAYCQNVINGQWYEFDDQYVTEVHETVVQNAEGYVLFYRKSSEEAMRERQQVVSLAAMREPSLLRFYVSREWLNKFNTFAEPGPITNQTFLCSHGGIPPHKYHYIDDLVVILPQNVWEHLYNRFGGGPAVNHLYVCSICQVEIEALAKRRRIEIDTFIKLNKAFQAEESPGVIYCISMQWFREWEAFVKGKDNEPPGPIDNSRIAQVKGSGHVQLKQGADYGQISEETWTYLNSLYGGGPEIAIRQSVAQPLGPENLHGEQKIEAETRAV

B1: biotinylated His-SPAST-M1 (natural protein, human, UniProt Q9UBP0 1-616, looked up)
chain: MNSPGGRGKKKGSGGASNPVPPRPPPPCLAPAPPAAGPAPPPESPHKRNLYYFSYPLFVGFALLRLVAFHLGLLFVWLCQRFSRALMAAKRSSGAAPAPASASAPAPVPGGEAERVRVFHKQAFEYISIALRIDEDEKAGQKEQAVEWYKKGIEELEKGIAVIVTGQGEQCERARRLQAKMMTNLVMAKDRLQLLEKMQPVLPFSKSQTDVYNDSTNLACRNGHLQSESGAVPKRKDPLTHTSNSLPRSKTVMKTGSAGLSGHHRAPSYSGLSMVSGVKQGSGPAPTTHKGTPKTNRTNKPSTPTTATRKKKDLKNFRNVDSNLANLIMNEIVDNGTAVKFDDIAGQDLAKQALQEIVILPSLRPELFTGLRAPARGLLLFGPPGNGKTMLAKAVAAESNATFFNISAASLTSKYVGEGEKLVRALFAVARELQPSIIFIDEVDSLLCERREGEHDASRRLKTEFLIEFDGVQSAGDDRVLVMGATNRPQELDEAVLRRFIKRVYVSLPNEETRLLLLKNLLCKQGSPLTQKELAQLARMTDGYSGSDLTALAKDAALGPIRELKPEQVKNMSASEMRNIRLSDFTESLKKIKRSVSPQTLEAYIRWNKDFGDTTV
modifications: biotin (biotinylated, site not stated)
notes: The methods call it His-SPAST; the results call it His-SPAST-M1; also called His-tagged SPAST protein; source: E. coli BL21 (pET28a-His-SPAST), purified (Ni-NTA)
As for B1, the binding result is recorded as “binds”.
